Experimental data as given in patent US20190309066A1 (ARCH ONCOLOGY, published 2019).

Target: T1, human CD47 expressed on cells (human, UniProt Q08722 19-292)
T1 construct: also called hCD47; integrin-associated protein
Test: flow cytometry on freshly isolated human RBCs, FITC-labelled donkey anti-human antibody, MFI
Description: FIG. 7. Binding of VLX9 Humanized mAbs to Human RBCs. […] RBCs were incubated for 60 minutes at 37° C. with various concentrations of VLX9 mAbs, washed and incubated for 1 hr with FITC-labelled donkey anti-human antibody. Cells were washed and antibody binding measured using flow cytometry.
Binding activities of chimeric and humanized VLX4, VLX8, and VLX9 mAbs to human CD47 on hRBCs were also determined using flow cytometry.

T1 sequence (Q08722 other isoform, or with tags, fused parts or gaps limits assumed): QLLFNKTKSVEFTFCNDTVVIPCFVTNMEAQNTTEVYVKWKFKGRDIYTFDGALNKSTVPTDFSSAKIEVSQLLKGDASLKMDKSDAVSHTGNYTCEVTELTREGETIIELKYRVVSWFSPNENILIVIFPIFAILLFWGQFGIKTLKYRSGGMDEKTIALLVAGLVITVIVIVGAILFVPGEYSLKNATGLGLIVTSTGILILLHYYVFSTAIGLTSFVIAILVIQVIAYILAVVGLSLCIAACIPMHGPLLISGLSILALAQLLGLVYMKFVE

B1: VLX9 IgG2 (xi) (antibody)
heavy: QVQLQQFGAELAKPGASVQMSCKASGYTFTNYWIHWVKQRPGQGLEWIGYTDPRTDYTEYNQKFKDKATLAADRSSSTAYMRLSSLTSEDSAVYYCAGGGRVGLGYWGHGSSVTVSSASTKGPSVFPLAPCSRSTSESTAALGCLVKDYFPEPVTVSWNSGALTSGVHTFPAVLQSSGLYSLSSVVTVPSSNFGTQTYTCNVDHKPSNTKVDKTVERKCCVECPPCPAPPVAGPSVFLFPPKPKDTLMISRTPEVTCVVVDVSHEDPEVQFNWYVDGVEVHNAKTKPREEQFNSTFRVVSVLTVVHQDWLNGKEYKCKVSNKGLPAPIEKTISKTKGQPREPQVYTLPPSREEMTKNQVSLTCLVKGFYPSDIAVEWESNGQPENNYKTTPPMLDSDGSFFLYSKLTVDKSRWQQGNVFSCSVMHEALHNHYTQKSLSLSPGK
light: DVFMTQTPLSLPVSLGDQASISCRSSQNIVQSNGNTYLEWYLQKPGQSPKLLIYKVFHRFSGVPDRFSGSGSGTDFTLKISRVEAEDLGVYYCFQGSHVPWTFGGGTKVEIKRTVAAPSVFIFPPSDEQLKSGTASVVCLLNNFYPREAKVQWKVDNALQSGNSQESVTEQDSKDSTYSLSSTLTLSKADYEKHKVYACEVTHQGLSSPVTKSFNRGEC
notes: murine-human chimera; also called VLX9 IgG2 chimera (xi)
Question: With B1 as the binder, how does the “EC50 (read off the curve)” value read?
Answer: The value was ~0.5 nM.
